Data: the RNAGym collection of RNA variant scans (doi:10.1073/pnas.2313332121)
Fewer inactive variants are shown than the library holds.

B1: TPR 5TU (parent)
chain: GGAUCUUCUCGAUCUAACAAAAAAGACAAAUCUGCCACAAAGCUUGAGAGCAUCUUCGGAUGCAGAGGCGGCAGCCUUCGGUGGCGCGAUAGCGCCAACGUUCUCAACUAUGACACGCAAAACGCGUGCUCCGUUGAAUGGAGUUUAUCAUG

Variants of: B1
Assay: polymerase ribozyme fitness, log enrichment relative to wild type (log ratio); higher = more active; in vitro selection for triplet polymerase activity
Summary of the method: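 A heterodimeric triplet polymerase ribozyme had each of its subunits mutagenized by PCR into a library, which was transcribed. One round of in vitro selection, done in triplicate, annealed each library with a biotinylated primer, its partner subunit and triplets, then incubated it frozen at −7 °C before gel excision of extended constructs, streptavidin-bead capture and RT-PCR. Fitness is the logarithm of genotype enrichment relative to wild-type enrichment, based on Illumina sequencing of inputs and outputs and inverse-variance-weighted replicate averages. A base-2 logarithm is used, and genotypes were kept only with ≥10 input reads and ≥1 read per output.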

Compared with GGUUCUUCUCGAUCUAACAAAAAAGACAAAUCUGCCACAAAGCUUGCGAGCAUCUUCGGAUGCAGAGGCGGCAGCCUUCGGUGGCGCGAUAGCGCCAACGUUCUCAACUAUGACACGCAAAACGCGUGCUCCGUUGAAUGGAGUUUAUCAUG [A3U A47C], GGAUCUUCUCGAUCUAACAAAAAAGACUAAUCUGCCACAAAGCGUGAGAGCAUCUUCGGCUGCAGAGGCGGCAGCCUUCGGUGGAGCGAUAGCGCCAACGUUCUCAACUAUGACACGCAAAACGCGUGCUCCGUUGAAUGGAGCUUAACAUG [A28U U44G A60C C85A U144C U148A] is lower in “polymerase ribozyme fitness (log ratio)” value: -0.9 for the first, at most -4.2 for the second.

First: GGAUCUUCUCGAUAUAACAAAAAAGACAAAUCUGCCACAACGCUUGAGAGCAUCUUCGGAUGCAGAGGCGGCAGCCUUCGGUGGAGCGAUAGCGCCAACGUUCUCAACUAUGACACGCAAAACGCGUGCUCUGUUGAAUGGAGUAUAUCAUG [C14A A41C C85A C132U U145A]
Second: GGAUCUUCUGGAUCUAACAAAAAAGACAAAUCUGCCACAAAGCUUGAGAGCAACUUCGGAUGCAGAGGCGGCAGCCUUCGGUGGCGCGAUAGCGCCAACGUUCUCAACUAUGACACGCAAAACGCGUGCUCCGUUGAAUGGAGUUUAUCAUG [C10G U53A]
The “polymerase ribozyme fitness (log ratio)” value of the first is lower: at most -4.2 for the first, -3.48 for the second.

GGAUCUUCUCUAUCUAACAAAAAAGACGAAUCUGCCACAAUGCUUGAGAGCAUCUUCGGAGGCAGAGACGGCAGCCUUCGGUGGCGCGAUAGCGCUCACGUUCUCAAUUAUGACACGCAAAACGCGUGCUCCGUUGAAUGGAUUUUAUAAUG [G11U A28G A41U U61G G68A C96U A97C C108U G143U C149A] and GGAUCUUCUCGAUCUAACAACAAAGACAAAUCUGCCACAAAGCUUGAGAGCAUCUUCGGAUGCAGAGGCGGCAGCCUUCGGUGGCGCGAUCGCGCCAACGUUCUCAACUAUGACACGCAAAACGCGCGCUCCGUUGAAUGGAGUUUAUCAUG [A21C A91C U127C] cannot be ordered by “polymerase ribozyme fitness (log ratio)” value: at most -4.2 for the first, at most -4.2 for the second.

Going from GGAUCUUCUCGAUCUAACAAAAAAGACAAAUCUGCCACAAAGCUUGAGAGCAUCUUUGCAUGCAGAGGGGGCAGCCUUCGGUGGCGCGAUAGCGCAAACGUUCUCAACUAUGACACGCAAAACGCGUGCUCCGUUGAAUGGAGUUUAUCAUG [C57U G59C C69G C96A] to GGAUCUUCUCGAUCUAACAAAAAAGACAAAUCUGCCACAAAGCUUGAGAGCAUCUUCGGAUGCAGAGGCGGCAGCCUUCAGUGGGGCGAUAGCGCCAACGUUCUCAACUAUGACAGGCAAAACGCGUGCUCCGUUGAAUGGAGUUUAUCAUG [G80A C85G C116G], the “polymerase ribozyme fitness (log ratio)” value falls from -1.45 to -2.05.

Compared with GGAUCUUCUGGAUCUAACAAAUAAGACAAAUCUGCCACAAAGCUUGAGAGCAUCUUCGGAUGCAGAGGCGGCAGCCUUCGGUGGCGCGAUAGCGCCAACGUUCUCAACUAUGACACGCAAAACGCGUGCUCCGUUGAAUGGAGUUUAUCAUG [C10G A22U], GGAUCUUCUCGAUCUAACAAAAAAGACAAAUCUGCCACAAAGCUUGAGAGCAUCUUCGGAUGCAGAGGCGGCAGCCUUCGGUGGCGCGAUAGCGCAAACGUUCUCAACUAUGACACGCAAAACGCAUGCUCCGUUGAAUGGAGUUUAUCAUG [C96A G126A] is higher in “polymerase ribozyme fitness (log ratio)” value: -3.34 for the first, -1.95 for the second.

Compared with GGAUCUUCUCGAUCUAACAAAAAAGACAAAUCUGCCACAAAGCUUGAGAGCAUCUUCGGAUGCAGAGGCGGCAGCAUUCGGUGGUGCGAUAGCGCCAACGUUCUCAACUAUGACACGCAAAACGCGUGCUCCGUUGAAUGGAGCUUAUCAUG [C76A C85U U144C], GGCUCGUCUCGAUCUAACAAAAAAGACAAAUCUGCCACAAAGCUUGAGAGCAUCUUCGGGUGCAGAGGCGGCAGCCUUCGGUCGCGCGAUAGCGCCAACGUUCUCAACUAUGACACGCAAAACGCGUGCUCCGUUGAAUGGAGUUUAUCAUG [A3C U6G A60G G83C] is lower in “polymerase ribozyme fitness (log ratio)” value: -0.235 for the first, -3.62 for the second.

GGAUCUUCUCGAUCUAACAAAAAAGACAAAUCUGACACAAAGCUUGAGAGCAUCUUCGGAUGCAGCGGCGGCAGCCUUCGGUGGCGCGAUAGCGCCAACGUUCGCAACUAUGACACGCAAAACGCGUGCUCCGUUGAAUGGAGUUUAUCAUG [C35A A66C U104G] and GGAUCUCCUCGAUCUAACAAAAAAGACAAAUCUGCCACAAAGCUUGAGAGCAGCUUCGGAUGCAGAGGCGGCAGCCUUCGGUGGCGCGAUAGCACCAACGUUCUCAACUAUGACACGCAAAACGCGUGCUCCGUUGAAUGGAGUUUAUCAUG [U7C U53G G94A] cannot be ordered by “polymerase ribozyme fitness (log ratio)” value: at most -4.2 for the first, at most -4.2 for the second.

GGAUCUUCUCGAUCUAACAAAGAAGACAAAUCUGCCACAAAGCUUGAAAGCAUCUUCGGAUCCAGAGGCGGCAGCCUUCGGUGGCGCGAUAGCACCAACGUUCUCAACUAUGACAUGCAAAACGCGUGCUCCGUUGAAUGGAGUUUAUCAUG [A22G G48A G62C G94A C116U] and GGAUCUUCUCGAUCUAACAAAAAAGACAAAUCUGCCACAAAGCUUGAGGGCAUCUUCGGAUGCAGAGGCGGCAGACUUCGGUGGCGCGAUAGCGCCAACGUUCUCAACUAUGACACGCAAAACGCGUGCUCCGUUUACUGGAGUUUAUCAUG [A49G C75A G136U A138C] cannot be ordered by “polymerase ribozyme fitness (log ratio)” value: at most -4.2 for the first, at most -4.2 for the second.

Going from GGAUCUUCUCGAUCUAUCAAAAAAGACAAAUCUGCCACAAAGCUUGAGAGCAUCUUCGGAUUCAGAGGCGGCAGCCUUCGGUGGUGCGAUAGCGCCAACGUUCUCAACUAUGACACGCAAAACGCGUGCUCCGUUGAAUGUAGUUUAUCAUG [A17U G62U C85U G141U] to GGAUCUUCGCGAUCAAACAAAAAAGACAAUUCGGCCACAAACCUUGAGAGCAUCUUCGGAUGCAGAGGCGGCAGCCUUCGGUGGCGCGAUAGCGCCAACGAUCUGAACUUUGACACGUGAAACGCGUGCUCCGUUGAAAGGAGUUUCUCGUG [U9G U15A A30U U33G G42C U101A C105G A110U C118U A119G U139A A147C A150G], the “polymerase ribozyme fitness (log ratio)” value falls from -0.389 to at most -4.2.

With GGAUCUUCUCGAUCUAUCAAAAAAGACAAAUCUGCCACAAAGCGUGAGAGCAUCUGCGGAUGCAGAGGCGGCAGCCUUCGGUGGCGCGAUAGCGCCAACGUUCUCAACUAUGACACGCAAAACGCGUUCUCCGUUGAAUGGAGUUUAUCAUG [A17U U44G U56G G128U] the “polymerase ribozyme fitness (log ratio)” value was at most -4.2.
